In article PMC9352680, “A comprehensive thermodynamic model for RNA binding by the Saccharomyces cerevisiae Pumilio protein PUF4”:
Changes are numbered by the printed parent chain. In names and notes the source's numbering stands.

Molecular target: T1, PUF4 RNA-binding domain (Saccharomyces cerevisiae, UniProt P25339 537-888)
T1 sequence: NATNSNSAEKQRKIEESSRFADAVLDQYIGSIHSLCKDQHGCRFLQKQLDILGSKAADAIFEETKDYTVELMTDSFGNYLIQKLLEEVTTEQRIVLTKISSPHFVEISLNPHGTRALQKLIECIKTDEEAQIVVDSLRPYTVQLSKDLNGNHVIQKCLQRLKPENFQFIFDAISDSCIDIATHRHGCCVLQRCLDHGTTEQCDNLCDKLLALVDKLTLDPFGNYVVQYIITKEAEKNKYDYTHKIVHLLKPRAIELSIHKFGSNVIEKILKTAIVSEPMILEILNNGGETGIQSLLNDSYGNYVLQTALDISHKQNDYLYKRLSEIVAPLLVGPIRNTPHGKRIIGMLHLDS
Test: Mg; RNA-MaP; 20 mM Na-HEPES pH 7.4, 30 mM KOAc, 0.75 mM MgCl2, 0.1% Tween-20, 5% glycerol, 0.1 mg/mL BSA, 2 mM DTT; 25 C; 0.0125-409.6 nM protein
Settings: tags: N-His6-TEV cleaved; C-SNAP kept, Cy3B-labelled; label: tethered on chip by stalled RNA polymerase

B1: Ic_S2_P4E.1_K4.1_C4.1_H4.1_A4.1_[T5A]_[A6C]_F4.1_[T8G]_[A9T]_T4.1 (ssRNA)
RNA: UUUGAUUAAUAUGAUAUCGUUCUUUCUUGUAACUGUUUCUUUCUCGAUAUCAUAUUAAUCUUU
  Kd: 61.3 nM

B2: Ic_S2_P4E.1_K4.1_C4.1_H4.1_A4.1_[T5A]_[A6C]_F4.1_[T8C]_T4.1 (ssRNA)
RNA: B1 RNA with G35C, U36A
  Kd: 324 nM

B3: Ic_S2_P4E.1_K4.1_C4.1_H4.1_A4.1_[T5A]_[A6C]_F4.1_[T8A]_[A9G]_T4.1 (ssRNA)
RNA: B1 RNA with G35A, U36G
  Kd: 946 nM

B4: Ic_S2_P4E.1_K4.1_C4.1_H4.1_A4.1_[T5A]_[A6T]_[T7G]_F4.1_[T8C]_[A9C]_T4.1 (ssRNA)
RNA: B1 RNA with C33U, U34G, G35C, U36C
  Kd: 1040 nM

B5: Ic_S2_P4E.1_K4.1_C4.1_H4.1_A4.1_[T5A]_[A6T]_[T7G]_F4.1_[T8C]_[A9T]_T4.1 (ssRNA)
RNA: B1 RNA with C33U, U34G, G35C
  Kd: 518 nM

B6: Ic_S2_P4E.1_K4.1_C4.1_H4.1_A4.1_[T5A]_[A6T]_[T7G]_F4.1_T4.1 (ssRNA)
RNA: B1 RNA with C33U, U34G, G35U, U36A
  Kd: 8.85 nM

B7: Ic_S2_P4E.1_K4.1_C4.1_H4.1_A4.1_[T5A]_[A6T]_[T7C]_F4.1_[T8G]_[A9G]_T4.1 (ssRNA)
RNA: B1 RNA with C33U, U34C, U36G
  Kd: 1800 nM

B8: Ic_S2_P4E.1_K4.1_C4.1_H4.1_A4.1_[T5A]_[A6T]_[T7C]_F4.1_[T8G]_[A9C]_T4.1 (ssRNA)
RNA: B1 RNA with C33U, U34C, U36C
  Kd: 629 nM

B9: Ic_S2_P4E.1_K4.1_C4.1_H4.1_A4.1_[T5A]_[A6T]_[T7C]_F4.1_[T8G]_[A9T]_T4.1 (ssRNA)
RNA: B1 RNA with C33U, U34C
  Kd: 335 nM

B10: Ic_S2_P4E.1_K4.1_C4.1_H4.1_A4.1_[T5A]_[A6T]_[T7C]_F4.1_[T8C]_[A9G]_T4.1 (ssRNA)
RNA: B1 RNA with C33U, U34C, G35C, U36G
  Kd: 648 nM

## UCUCUUUGUAAGUAUCUCUU (ssRNA) [Ic_S1_P3E.1_K3.1_C3.1_H3.1_A3.1_[T5A]_[A6G]_F3.1_T3.1]
  Kd: 1780 nM

B11: Ic_S2_P4E.1_K4.1_C4.1_H4.1_A4.1_[T5A]_[A6T]_[T7C]_F4.1_[T8C]_[A9C]_T4.1 (ssRNA)
RNA: B1 RNA with C33U, U34C, G35C, U36C
  Kd: 454 nM

B12: Ic_S2_P4E.1_K4.1_C4.1_H4.1_A4.1_[T5A]_[A6T]_[T7C]_F4.1_[T8C]_[A9T]_T4.1 (ssRNA)
RNA: B1 RNA with C33U, U34C, G35C
  Kd: 283 nM

B13: Ic_S2_P4E.1_K4.1_C4.1_H4.1_A4.1_[T5A]_[A6T]_[T7C]_F4.1_[T8A]_[A9G]_T4.1 (ssRNA)
RNA: B1 RNA with C33U, U34C, G35A, U36G
  Kd: 1430 nM

B14: Ic_S2_P4E.1_K4.1_C4.1_H4.1_A4.1_[T5A]_[A6T]_[T7C]_F4.1_[T8A]_[A9T]_T4.1 (ssRNA)
RNA: B1 RNA with C33U, U34C, G35A
  Kd: 128 nM

B15: Ic_S2_P4E.1_K4.1_C4.1_H4.1_A4.1_[T5A]_[A6T]_[T7C]_F4.1_[A9G]_T4.1 (ssRNA)
RNA: B1 RNA with C33U, U34C, G35U, U36G
  Kd: 24.7 nM

B16: Ic_S2_P4E.1_K4.1_C4.1_H4.1_A4.1_[T5A]_[A6T]_[T7C]_F4.1_[A9T]_T4.1 (ssRNA)
RNA: B1 RNA with C33U, U34C, G35U
  Kd: 22 nM

B17: Ic_S2_P4E.1_K4.1_C4.1_H4.1_A4.1_[T5A]_[A6T]_[T7C]_F4.1_T4.1 (ssRNA)
RNA: B1 RNA with C33U, U34C, G35U, U36A
  Kd: 2.23 nM

B18: Ic_S2_P4E.1_K4.1_C4.1_H4.1_A4.1_[T5A]_[A6T]_[T7A]_F4.1_[T8G]_[A9C]_T4.1 (ssRNA)
RNA: B1 RNA with C33U, U34A, U36C
  Kd: 1120 nM

B19: Ic_S2_P4E.1_K4.1_C4.1_H4.1_A4.1_[T5A]_[A6T]_[T7A]_F4.1_[T8C]_T4.1 (ssRNA)
RNA: B1 RNA with C33U, U34A, G35C, U36A
  Kd: 558 nM

B20: Ic_S2_P4E.1_K4.1_C4.1_H4.1_A4.1_[T5A]_[A6T]_[T7A]_F4.1_[T8A]_[A9C]_T4.1 (ssRNA)
RNA: B1 RNA with C33U, U34A, G35A, U36C
  Kd: 470 nM

## UCUCUUUGUAACUAUCUCUU (ssRNA) [Ic_S1_P3E.1_K3.1_C3.1_H3.1_A3.1_[T5A]_[A6C]_F3.1_T3.1]
  Kd: 271 nM

B21: Ic_S2_P4E.1_K4.1_C4.1_H4.1_A4.1_[T5A]_[A6T]_[T7A]_F4.1_[T8A]_[A9T]_T4.1 (ssRNA)
RNA: B1 RNA with C33U, U34A, G35A
  Kd: 94.7 nM

B22: Ic_S2_P4E.1_K4.1_C4.1_H4.1_A4.1_[T5A]_[A6T]_[T7A]_F4.1_[T8A]_T4.1 (ssRNA)
RNA: B1 RNA with C33U, U34A, G35A, U36A
  Kd: 56 nM

B23: Ic_S2_P4E.1_K4.1_C4.1_H4.1_A4.1_[T5A]_[A6T]_[T7A]_F4.1_[A9G]_T4.1 (ssRNA)
RNA: B1 RNA with C33U, U34A, G35U, U36G
  Kd: 11.1 nM

B24: Ic_S2_P4E.1_K4.1_C4.1_H4.1_A4.1_[T5A]_[A6T]_[T7A]_F4.1_T4.1 (ssRNA)
RNA: B1 RNA with C33U, U34A, G35U, U36A
  Kd: 1.45 nM

B25: Ic_S2_P4E.1_K4.1_C4.1_H4.1_A4.1_[T5A]_[A6T]_F4.1_[T8G]_[A9T]_T4.1 (ssRNA)
RNA: B1 RNA with C33U
  Kd: 117 nM

B26: Ic_S2_P4E.1_K4.1_C4.1_H4.1_A4.1_[T5A]_[A6T]_F4.1_[T8C]_[A9G]_T4.1 (ssRNA)
RNA: B1 RNA with C33U, G35C, U36G
  Kd: 649 nM

B27: Ic_S2_P4E.1_K4.1_C4.1_H4.1_A4.1_[T5A]_[A6T]_F4.1_[T8C]_[A9C]_T4.1 (ssRNA)
RNA: B1 RNA with C33U, G35C, U36C
  Kd: 315 nM
